Source: US20240307455A1, “COMPOSITIONS, DEVICES AND METHODS FOR TREATING IMMUNE-MEDIATED INFLAMMATORY DISEASES” (SIGILON THERAPEUTICS, INC., priority 2021, published 2024)

T1: IL-22 (Homo sapiens, UniProt Q9GZX6)
T1 construct: made in house; host or cells: genetically modified ARPE-19 cells; filter-sterilized culture supernatant, not purified
T1 sequence (Q9GZX6 34-179): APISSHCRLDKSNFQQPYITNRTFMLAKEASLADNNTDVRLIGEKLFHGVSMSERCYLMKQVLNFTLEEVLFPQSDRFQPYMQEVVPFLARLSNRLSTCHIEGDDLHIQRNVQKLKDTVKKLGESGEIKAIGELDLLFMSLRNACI


Experiments:
[1] = in vivo; cited from earlier work
Colo205 cells = assay: Induction of IL-10 production by Colo205 cells (ELISA); assay type: cell-based, human; details: ~18 h incubation
Procedure: Balb-3T3 cells and ARPE-19 cells were genetically modified to express and secrete murine IL-22 and human IL-22, respectively. The ability of the genetically modified ARPE-19 cells to produce active hIL-22 in vitro was assessed by the induction of IL-10 production by Colo205 cells, which are derived from human colonic epithelium.
Generation of IL-22 response curve. Col205 cells were seeded at a density of 2×10^5 cells/well in a 96 well plate and starved in serum free media overnight. The serum free media was removed from the wells and the cells were treated with rhIL-22 (peprotech Cat #200-22) diluted in RPMI/10% FBS at half log dilutions to generate final concentrations of 1000, 316.46, 100.14, 31.69, 10.02, 3.17, 1 and 0.32 pg/ml. The plate was incubated overnight at 37 C, 5% CO2 for ˜18 h. The supernatant was transferred to a new 96 well plate and centrifuged.
Biological activity of hIL-22 produced by genetically modified ARPE-19 cells. Col205 cells were seeded at a density of 2×10^5 cells/well in a 96 well plate and starved in serum free media overnight. The serum free media was removed and the cells were treated with filter sterilized supernatant from hIL22 producing ARPE-19 cells (ARPE-19 IL-22) or unmodified ARPE-19 cells (ARPE-19 WT) diluted in RPMI/10% FBS at final concentrations of 1%, 0.5%, 0.25% and 0.125%. The plate was incubated overnight at 37 C, 5% CO2 for ˜18 h. […]

IL-22 = target: T1, IL-22; assay: Inhibition of IL22 activity in Col205 cells; assay type: cell-based; details: ARPE IL-22 supernatant 1%; rhIL22BP 100, 50, 25 and 1 ng/ml
Procedure: Inhibition of IL22 activity in Col205 cells. Col205 cells were seeded at a density of 2×10^5 cells/well in a 96 well plate and starved in serum free media overnight. The serum free media was removed and the cells were treated with 190 ul of recombinant human IL-22 binding protein (rhIL22BP) diluted in RPMI/10% FBS at concentrations of 100, 50, 25 and 1 ng/ml. Filter sterilized supernatant from hIL22-producing ARPE-19 cells (ARPE IL-22) or unmodified ARPE-19 cells (ARPE WT) was diluted 1:5 in RPMI/10% FBS and 10 ul was added to the wells for a final concentration of 1%. The plate was incubated overnight at 37 C, 5% CO2 for ˜18 h. The supernatant was transferred to a new 96 well plate and centrifuged.

Molecule | IL-10 production by Colo205 cells (Colo205 cells) | other results
human IL-10: human IL-10 protein in plasma | – | half-life of human IL-10 in plasma [1]: about 2 hours
rhIL-22: rhIL-22 (peprotech Cat #200-22) (protein, UniProt Q9GZX6 34-179, looked up) Interleukin-22: APISSHCRLDKSNFQQPYITNRTFMLAKEASLADNNTDVRLIGEKLFHGVSMSERCYLMKQVLNFTLEEVLFPQSDRFQPYMQEVVPFLARLSNRLSTCHIEGDDLHIQRNVQKLKDTVKKLGESGEIKAIGELDLLFMSLRNACI | induced IL-10 production | –
hIL-22: human IL-22 in filter sterilized supernatant from hIL22 producing genetically modified ARPE-19 cells (protein, UniProt Q9GZX6 34-179, looked up) Interleukin-22: APISSHCRLDKSNFQQPYITNRTFMLAKEASLADNNTDVRLIGEKLFHGVSMSERCYLMKQVLNFTLEEVLFPQSDRFQPYMQEVVPFLARLSNRLSTCHIEGDDLHIQRNVQKLKDTVKKLGESGEIKAIGELDLLFMSLRNACI | functionally active | –
rhIL22BP: recombinant human IL-22 binding protein, an endogenous and specific IL-22 inhibitor (protein, UniProt Q969J5 22-263, looked up) Interleukin-22 receptor …: TQSTHESLKPQRVQFQSRNFHNILQWQPGRALTGNSSVYFVQYKIMFSCSMKSSHQKPSGCWQHISCNFPGCRTLAKYGQRQWKNKEDCWGTQELSCDLTSETSDIQEPYYGRVRAASAGSYSEWSMTPRFTPWWETKIDPPVMNITQVNGSLLVILHAPNLPYRYQKEKNVSIEDYYELLYRVFIINNSLEKEQKVYEGAHRAVEIEALTPHSSYCVVAEIYQPMLDRRSQRSEERCVEIP | – | IL-10 production induced by hIL-22 in the presence of rhIL22BP (IL-22): blocked
